The record followed here is patent US20090048161A1 (VALORISATION HSJ SOCIETE EN COMMANDITE, published 2009).

Test in all cases: cell-based or functional assay
Experiment [1] has as its target T1, human Interleukin-1 receptor (IL-1R-alpha) (human, UniProt P14778 18-569).
T1 sequence: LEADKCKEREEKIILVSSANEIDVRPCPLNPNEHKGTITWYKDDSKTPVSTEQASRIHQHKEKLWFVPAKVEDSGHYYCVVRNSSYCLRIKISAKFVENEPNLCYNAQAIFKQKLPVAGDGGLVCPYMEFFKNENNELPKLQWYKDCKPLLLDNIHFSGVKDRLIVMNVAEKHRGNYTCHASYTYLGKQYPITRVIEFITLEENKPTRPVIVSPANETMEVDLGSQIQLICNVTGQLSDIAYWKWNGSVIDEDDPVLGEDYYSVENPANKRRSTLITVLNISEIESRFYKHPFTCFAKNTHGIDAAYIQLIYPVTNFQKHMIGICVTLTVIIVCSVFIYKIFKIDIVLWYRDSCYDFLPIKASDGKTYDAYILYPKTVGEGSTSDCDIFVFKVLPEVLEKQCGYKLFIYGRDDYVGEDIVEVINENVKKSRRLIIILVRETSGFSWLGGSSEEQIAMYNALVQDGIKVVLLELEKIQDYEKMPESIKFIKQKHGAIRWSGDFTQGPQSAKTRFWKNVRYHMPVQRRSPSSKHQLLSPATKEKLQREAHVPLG

Experiment [2] concerns the target T2, IL-1R of pig (piglet pial vessels; porcine endothelial cells) (porcine (piglet), UniProt A0A5G2QSI4 18-572).
T2 sequence: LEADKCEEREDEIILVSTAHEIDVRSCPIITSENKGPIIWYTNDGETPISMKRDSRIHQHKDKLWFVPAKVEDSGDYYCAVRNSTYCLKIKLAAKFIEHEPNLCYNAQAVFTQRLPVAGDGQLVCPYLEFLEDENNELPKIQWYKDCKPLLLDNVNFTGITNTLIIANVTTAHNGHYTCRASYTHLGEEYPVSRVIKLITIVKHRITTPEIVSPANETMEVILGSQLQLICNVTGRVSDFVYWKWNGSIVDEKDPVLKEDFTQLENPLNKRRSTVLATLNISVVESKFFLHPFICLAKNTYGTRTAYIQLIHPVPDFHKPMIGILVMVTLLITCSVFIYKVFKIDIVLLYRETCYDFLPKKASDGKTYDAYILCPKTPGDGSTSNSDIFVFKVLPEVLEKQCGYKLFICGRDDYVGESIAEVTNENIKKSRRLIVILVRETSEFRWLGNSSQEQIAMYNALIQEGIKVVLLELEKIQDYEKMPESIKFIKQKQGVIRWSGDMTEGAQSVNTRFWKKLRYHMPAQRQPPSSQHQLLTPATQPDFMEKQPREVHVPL

Experiment [3] deals with T3, human Insulin-like growth factor 1 receptor (IGF-1R) (human, UniProt P08069 31-1367).
Experiment [4] has as its target T3, human Insulin-like growth factor 1 …. The source holds these as a separate data set.
In experiment [5] the target is T1, human Interleukin-1 receptor …. This is another data set of the same source.
Experiment [6] shares this target. The source holds these as a separate data set.
In experiment [7] the target is T2, IL-1R of pig (piglet pial vessels; …). This is another data set of the same source.
Experiment [8] has as its target T3, human Insulin-like growth factor 1 …. This is another data set of the same source.
The target in experiment [9] is IL-1R (cells or tissue whose species or assay the filing does not state at that place).
The target of experiment [10] is T3, human Insulin-like growth factor 1 …. This is another data set of the same source.
For experiment [11], the target named is VEGFR-2 (Flk-1) (human, UniProt P35968 20-1356).

Where no end group is shown, it is not given here. [ ]: non-standard residue; d: D form. dOrn = NCCC[C@@H](N)C(=O)O

T3 sequence (P08069 31-1367 limits assumed): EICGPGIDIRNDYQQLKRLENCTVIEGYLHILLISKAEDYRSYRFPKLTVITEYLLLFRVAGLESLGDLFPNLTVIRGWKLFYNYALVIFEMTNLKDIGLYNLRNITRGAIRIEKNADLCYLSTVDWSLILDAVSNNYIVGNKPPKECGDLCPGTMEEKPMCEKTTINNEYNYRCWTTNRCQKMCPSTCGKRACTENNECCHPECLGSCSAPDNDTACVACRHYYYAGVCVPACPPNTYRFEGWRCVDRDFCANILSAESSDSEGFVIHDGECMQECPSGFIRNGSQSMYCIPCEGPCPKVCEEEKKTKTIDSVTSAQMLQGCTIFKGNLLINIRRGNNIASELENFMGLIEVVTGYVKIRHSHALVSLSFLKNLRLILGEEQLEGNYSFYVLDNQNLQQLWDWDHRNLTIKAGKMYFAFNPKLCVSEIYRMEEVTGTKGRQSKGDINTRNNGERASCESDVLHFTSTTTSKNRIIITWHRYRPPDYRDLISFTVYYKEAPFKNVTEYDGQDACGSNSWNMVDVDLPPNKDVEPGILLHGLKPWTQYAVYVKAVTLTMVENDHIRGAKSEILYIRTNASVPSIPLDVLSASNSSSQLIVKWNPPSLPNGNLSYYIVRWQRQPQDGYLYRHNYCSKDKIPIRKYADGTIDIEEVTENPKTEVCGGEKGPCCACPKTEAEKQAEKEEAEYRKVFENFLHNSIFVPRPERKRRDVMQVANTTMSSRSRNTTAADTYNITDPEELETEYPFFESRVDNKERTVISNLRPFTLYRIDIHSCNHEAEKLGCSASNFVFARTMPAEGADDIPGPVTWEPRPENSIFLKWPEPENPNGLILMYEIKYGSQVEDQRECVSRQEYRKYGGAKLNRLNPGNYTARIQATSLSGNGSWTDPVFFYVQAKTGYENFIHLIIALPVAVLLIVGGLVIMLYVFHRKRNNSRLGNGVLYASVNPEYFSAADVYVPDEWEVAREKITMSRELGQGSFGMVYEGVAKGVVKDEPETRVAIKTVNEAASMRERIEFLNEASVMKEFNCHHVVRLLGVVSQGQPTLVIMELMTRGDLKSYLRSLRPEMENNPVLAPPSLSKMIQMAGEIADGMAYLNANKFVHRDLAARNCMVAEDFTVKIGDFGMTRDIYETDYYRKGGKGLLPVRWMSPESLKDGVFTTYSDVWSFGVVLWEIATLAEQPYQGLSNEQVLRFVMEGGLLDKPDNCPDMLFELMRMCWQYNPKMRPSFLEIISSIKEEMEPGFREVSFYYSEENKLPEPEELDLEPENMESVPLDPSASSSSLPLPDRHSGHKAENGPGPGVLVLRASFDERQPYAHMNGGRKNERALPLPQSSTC
Sequence of VEGFR-2 (Flk-1) (P35968 20-1356 limits assumed): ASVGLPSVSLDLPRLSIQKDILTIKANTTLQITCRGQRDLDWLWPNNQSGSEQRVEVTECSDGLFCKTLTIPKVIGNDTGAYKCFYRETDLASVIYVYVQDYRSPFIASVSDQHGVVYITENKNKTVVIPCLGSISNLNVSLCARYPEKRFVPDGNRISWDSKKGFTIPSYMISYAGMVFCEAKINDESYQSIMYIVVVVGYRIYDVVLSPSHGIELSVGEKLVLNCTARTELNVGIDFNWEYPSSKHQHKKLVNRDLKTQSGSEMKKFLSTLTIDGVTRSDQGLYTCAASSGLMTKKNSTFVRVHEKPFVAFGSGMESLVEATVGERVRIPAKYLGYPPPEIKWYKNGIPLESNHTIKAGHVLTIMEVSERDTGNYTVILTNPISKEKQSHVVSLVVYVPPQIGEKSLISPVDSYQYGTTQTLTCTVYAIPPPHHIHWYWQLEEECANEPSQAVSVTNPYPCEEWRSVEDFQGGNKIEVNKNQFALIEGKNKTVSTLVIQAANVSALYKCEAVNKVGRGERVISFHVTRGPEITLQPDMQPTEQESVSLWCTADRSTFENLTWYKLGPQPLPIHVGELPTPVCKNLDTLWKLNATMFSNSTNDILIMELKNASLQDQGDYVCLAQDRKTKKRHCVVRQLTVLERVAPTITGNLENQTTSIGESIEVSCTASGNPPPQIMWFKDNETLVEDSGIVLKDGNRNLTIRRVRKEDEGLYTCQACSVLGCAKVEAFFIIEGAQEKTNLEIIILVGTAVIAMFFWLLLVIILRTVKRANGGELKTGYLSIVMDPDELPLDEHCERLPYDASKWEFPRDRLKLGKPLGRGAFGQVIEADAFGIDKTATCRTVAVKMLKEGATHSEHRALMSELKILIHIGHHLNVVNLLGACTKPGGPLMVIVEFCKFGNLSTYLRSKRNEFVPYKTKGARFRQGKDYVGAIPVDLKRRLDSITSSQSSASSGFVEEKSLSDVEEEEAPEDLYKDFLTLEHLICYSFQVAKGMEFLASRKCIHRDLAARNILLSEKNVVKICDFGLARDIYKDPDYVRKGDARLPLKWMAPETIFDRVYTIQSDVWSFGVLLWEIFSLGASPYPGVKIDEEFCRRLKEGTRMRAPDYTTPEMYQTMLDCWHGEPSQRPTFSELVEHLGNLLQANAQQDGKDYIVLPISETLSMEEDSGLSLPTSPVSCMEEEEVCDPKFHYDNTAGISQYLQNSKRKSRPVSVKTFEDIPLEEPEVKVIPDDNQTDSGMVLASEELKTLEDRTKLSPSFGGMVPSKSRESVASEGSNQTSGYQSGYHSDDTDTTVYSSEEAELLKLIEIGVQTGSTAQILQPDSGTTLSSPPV

B1: API-101 (peptide)
peptide: [dA][dP][dR][dY][dT][dV][dE][dL][dA]
For B1, in experiment [1], the “EC50, IL-1 induced proliferation, 3H-thymidine, A549 carcinoma cells” value was found to be 1000 nM; the “IC50, IL-1-induced PGE2 synthesis, WI-38 cells” value came out at 790 nM; the “percent of IL-1β-induced WI-38 (human lung fibroblasts) proliferation abolished, 3H-thymidine” value worked out at 65%. Further, in experiment [2], the “IC50, IL-1-induced PGE2 synthesis, endothelial cells” value was determined as 220 nM and the “IC50, prevention of IL-1β (75 ng/ml)-induced vasodilation, piglet pial vessels” value came out at 182 nM.

B2: APG-202 (peptide)
peptide: [dE][dS][dD][dV][dL][dH][dF][dT][dS][dT]
As for B2, the “EC50, IGF-1 induced proliferation, 3H-thymidine, A549 carcinoma cells” value in experiment [3] was found to be 10 nM. In experiment [4], the “EC50, IGF-1 (50 ng/ml)-induced proliferation, MCF-7” value stood at 300 nM and the “Emax, IGF-1 (50 ng/ml)-induced proliferation, MCF-7” value was 20%.

B3: API-101.113 (peptide)
peptide: [dR][dY][dT][dP][dE][dL]
As to B3, the “Emax (%), IL-1β-induced TF-1 proliferation” value in experiment [5] is 70%. The “Emax (%), IL-1β-induced proliferation in TF-1 cells (human)” value (shortened to “Emax (%), IL-1β-induced proliferation”) in experiment [6] stood at 100%. In addition, in experiment [7], the “Emax (%), IL-1β-induced PGE2 synthesis in endothelial cells (porcine)” value came out at 80% and the “IC50, IL-1β-induced PGE2 synthesis in endothelial cells (porcine)” value is 0.0074 nM.

B4: APG-206.9 (peptide)
peptide: TVLSNL
Take B4: in [8], the “Emax, IGF-1-induced proliferation, NIH3T3-IGF-1R cells” value (shortened to “Emax, IGF-1-induced proliferation”) was determined as 90% and the “IC50, IGF-1-induced proliferation, NIH3T3-IGF-1R cells” value (“IC50, IGF-1-induced proliferation” for short) worked out at 20 nM.

B5: API-101.107 (peptide)
peptide: [dR][dY][dT][dP][dE][dL][dA]
Turning to B5, in experiment [1], the “IC50, PGE2 measurement, human WI-38 cells” value was found to be 100 nM. For the same molecule, the “IC50 (assay not given)” value in [9] amounted to 0.0012 nM.

B6: API-101.115 (peptide)
peptide: [dOrn][dY][dT][dP][dE][dL][dA]
Regarding B6, in experiment [6], the “Emax (%), IL-1β-induced proliferation” value is 100% and the “IC50, IL-1β-induced proliferation in TF-1 cells (human)” value was ~0.001 nM.

B7: APG-206.5 (peptide)
peptide: KERTVLS
With B7, in experiment [10], the “Emax, proliferation, MCF-7 (breast cancer) cells” value (“Emax, proliferation” below) was 100% and the “IC50, proliferation, MCF-7 (breast cancer) cells” value (“IC50, proliferation” for short) is 9 nM. In [8], the “Emax, IGF-1-induced proliferation” value is 75% and the “IC50, IGF-1-induced proliferation” value turned out to be 0.5 nM.

B8: APG-206.7 (peptide)
peptide: ERTVLSNL
For B8, in experiment [10], the “Emax, proliferation” value was 90% and the “IC50, proliferation” value is 0.01 nM. In addition, in [8], the “Emax, IGF-1-induced proliferation” value stood at 100% and the “IC50, IGF-1-induced proliferation” value amounted to 20 nM.

B9: APG-206.8 (peptide)
peptide: RTVLSNL
Turning to B9, in experiment [10], the “Emax, proliferation” value was determined as 100% and the “IC50, proliferation” value is 0.6 nM.

B10: API-101.10 (peptide)
peptide: [dR][dY][dT][dV][dE][dL][dA]
modifications: also: 125I-labelled form used as tracer, site not given here
Turning to B10, in [1], the “IC50, IL-1-induced PGE2 synthesis, WI-38 cells” value worked out at 0.2 nM and the “percent of IL-1β-induced WI-38 (human lung fibroblasts) proliferation abolished, 3H-thymidine” value was determined as 100%. In experiment [2], the “IC50, IL-1-induced PGE2 synthesis, endothelial cells” value is 1.2 nM and the “IC50, prevention of IL-1β (75 ng/ml)-induced vasodilation, piglet pial vessels” value was 10.8 nM.

B11: VEGFR peptide 2.1 (peptide)
peptide: [dA][dQ][dE][dK][dT][dN][dL][dE][dI][dI][dI][dL][dV]G
modifications: not fully specified (residue 14)
Take B11: the “EC50, VEGF (2 ng/ml)-induced proliferation, 3H-thymidine, PAEC transfected with Flk-1” value in [11] stood at 9000 nM.

B12: API-101.116 (peptide)
peptide: [dR][dW][dT][dP][dE][dL][dA]
Consider B12, for which, in experiment [6], the “Emax (%), IL-1β-induced proliferation” value came to 75% and the “IC50, IL-1β-induced proliferation in TF-1 cells (human)” value stood at 0.5 nM. In addition, in experiment [7], the “Emax (%), IL-1β-induced PGE2 synthesis in endothelial cells (porcine)” value came out at 45% and the “IC50, IL-1β-induced PGE2 synthesis in endothelial cells (porcine)” value came to 0.013 nM.

B13: VEGFR peptide 2.2 (peptide)
peptide: [dE][dA][dT][dV]G[dE][dR][dV][dR][dL]
modifications: not fully specified (residue 5)
For B13, the “EC50, VEGF (2 ng/ml)-induced proliferation, 3H-thymidine, PAEC transfected with Flk-1” value in experiment [11] turned out to be 9000 nM.

B14: APG-201 (peptide)
peptide: [dS][dL][dF][dV][dP][dR][dP][dE][dR][dK]
For B14, the “EC50, IGF-1 induced proliferation, 3H-thymidine, A549 carcinoma cells” value in [3] is 1000 nM. Besides, in experiment [4], the “EC50, IGF-1 (50 ng/ml)-induced proliferation, MCF-7” value was 35 nM; the “EC50, IGF-1 (50 ng/ml)-induced proliferation, MDA-MB-231” value is 0.1 nM; the “Emax, IGF-1 (50 ng/ml)-induced proliferation, MCF-7” value worked out at 20%; the “Emax, IGF-1 (50 ng/ml)-induced proliferation, MDA-MB-231” value stood at 100%.
